According to patent US20150275192:

Legend:
[1] = target: L1-CAM (CD171) extracellular domain (UniProt P32004); experiment: FP; settings: 5' DNA primer fd; remainder A = alpha-thio-dA, C = gemcitabine (2',2'-difluoro-dC), G = FANA-G, T = floxuridine (5-fluoro-dU); exact value only in figure
[2] = target: T1, CD30 extracellular domain (UniProt P28908); experiment: FP; settings: 5' DNA primer fd; remainder A = alpha-thio-dA, C = gemcitabine (2',2'-difluoro-dC), G = FANA-G, T = floxuridine (5-fluoro-dU); exact value only in figure
T1 sequence: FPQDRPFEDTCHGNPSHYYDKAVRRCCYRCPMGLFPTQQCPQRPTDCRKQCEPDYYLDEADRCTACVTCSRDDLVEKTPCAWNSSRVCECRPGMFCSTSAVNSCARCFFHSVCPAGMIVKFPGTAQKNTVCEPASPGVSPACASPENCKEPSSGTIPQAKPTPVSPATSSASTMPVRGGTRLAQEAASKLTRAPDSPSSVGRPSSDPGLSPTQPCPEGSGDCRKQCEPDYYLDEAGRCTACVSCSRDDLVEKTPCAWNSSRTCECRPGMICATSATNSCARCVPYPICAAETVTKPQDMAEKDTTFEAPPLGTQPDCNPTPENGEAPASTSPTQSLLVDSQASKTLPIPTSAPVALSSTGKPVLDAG

Sequence of L1-CAM (CD171) extracellular domain (P32004 20-1120): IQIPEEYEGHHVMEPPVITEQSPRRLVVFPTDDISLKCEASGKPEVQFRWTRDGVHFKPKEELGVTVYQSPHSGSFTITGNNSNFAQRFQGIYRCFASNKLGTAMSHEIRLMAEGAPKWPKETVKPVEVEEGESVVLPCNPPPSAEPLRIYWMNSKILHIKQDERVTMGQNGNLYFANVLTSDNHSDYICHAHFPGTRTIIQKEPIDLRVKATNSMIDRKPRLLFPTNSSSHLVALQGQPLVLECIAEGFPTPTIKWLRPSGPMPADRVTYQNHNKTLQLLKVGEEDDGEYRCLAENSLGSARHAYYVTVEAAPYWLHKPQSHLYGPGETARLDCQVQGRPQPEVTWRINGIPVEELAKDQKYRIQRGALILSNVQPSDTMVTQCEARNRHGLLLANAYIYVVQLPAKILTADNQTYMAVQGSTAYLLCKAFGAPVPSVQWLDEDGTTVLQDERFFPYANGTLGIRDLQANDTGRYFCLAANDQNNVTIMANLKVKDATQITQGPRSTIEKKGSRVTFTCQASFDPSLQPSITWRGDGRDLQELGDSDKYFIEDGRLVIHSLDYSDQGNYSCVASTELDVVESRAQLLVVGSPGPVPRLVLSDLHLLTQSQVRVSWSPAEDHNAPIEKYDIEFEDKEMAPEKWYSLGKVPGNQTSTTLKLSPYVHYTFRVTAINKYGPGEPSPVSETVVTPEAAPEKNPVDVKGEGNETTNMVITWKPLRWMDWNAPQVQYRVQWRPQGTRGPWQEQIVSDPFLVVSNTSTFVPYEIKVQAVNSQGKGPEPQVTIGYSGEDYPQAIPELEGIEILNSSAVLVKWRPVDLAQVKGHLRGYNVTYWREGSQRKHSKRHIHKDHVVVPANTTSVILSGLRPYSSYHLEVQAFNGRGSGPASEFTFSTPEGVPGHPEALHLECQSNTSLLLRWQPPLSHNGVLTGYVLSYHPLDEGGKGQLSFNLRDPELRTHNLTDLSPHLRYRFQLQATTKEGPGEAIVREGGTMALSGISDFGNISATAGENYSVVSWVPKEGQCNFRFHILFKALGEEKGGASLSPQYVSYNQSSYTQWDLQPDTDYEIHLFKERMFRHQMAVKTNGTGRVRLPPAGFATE

Work on “CCCCTTATTAGCGTTTGCCAACGACGCGACGCCGTTCAACCAGATATTGAAGCAGAACGCAAAAAGA [L1-CAM_Icore]” yielded a Kd [1] of less than 100 nM.
Sequence “CCCCTTATTAGCGTTTGCCAGCGACGCCGTTCAACCAGATATTGAAGCAGAACGCAAAAAGAGAGATGAGATTGAGGCT [L1CAM_I1]” has a Kd [1] of less than 100 nM.
“CCCCTTATTAGCGTTTGCCATAGATGTGGTAGAAGTCGTCATTTGGCGAGAAAGCTCAGTCTCAGG [CD30_I3]” was tested, and the Kd [2] was greater than 100 nM.
Work on “CCCCTTATTAGCGTTTGCCATAGATGTGGTAGAAGTCGTCATTTGGCGAGAAAGCTCAGTCTCAGG [L1-CAM_I6]” yielded a Kd [1] of less than 100 nM.
“CCCCTTATTAGCGTTTGCCATTTCATGGTATTGATAAAGCTGTTGCCGATACTTGGAACAATTTCT [CD30_I30]” was tested, and the Kd [2] was less than 100 nM.
